Assay results reported in IntAct's records for PubMed 19424970.

B1: UL16-binding protein 2 (Homo sapiens), Q9BZM5 (parent)
chain: MAAAAATKILLCLPLLLLLSGWSRAGRADPHSLCYDITVIPKFRPGPRWCAVQGQVDEKTFLHYDCGNKTVTPVSPLGKKLNVTTAWKAQNPVLREVVDILTEQLRDIQLENYTPKEPLTLQARMSCEQKAEGHSSGSWQFSFDGQIFLLFDSEKRMWTTVHPGARKMKEKWENDKVVAMSFHYFSMGDCIGWLEDFLMGMDSTLEPSAGAPLAMSSGTTQLRATATTLILCCLLIILPCFILPGI

Variants of: B1
Conditions: with nkg2d_human KLRK1, P26718
nkg2d_human KLRK1, P26718, sequence (P26718 whole entry): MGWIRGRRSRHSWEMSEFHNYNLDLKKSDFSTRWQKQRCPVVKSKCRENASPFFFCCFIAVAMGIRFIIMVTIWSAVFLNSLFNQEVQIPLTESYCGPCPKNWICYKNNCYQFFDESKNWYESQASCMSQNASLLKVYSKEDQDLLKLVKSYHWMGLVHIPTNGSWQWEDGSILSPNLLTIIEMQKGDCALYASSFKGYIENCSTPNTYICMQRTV

Variant | effect of a mutation on the interaction
F141L | decreasing interaction strength
